Measurements: patent US20240270866A1 (Alector, published 2024)
Residue numbers refer to the chain shown, from its start.

B1: SA-16 (antibody, V domains shown)
VH: QVQLQQWGAGLLKPSETLSLTCAVYGGSFSGYYWSWIRQPPGKGLEWIGEIDHSGSTNYNPSLKSRVTISVDTSKNQFSLKLSSVTAADTAVYYCARDLGPPGPHLDVWGQGTMVTVSS
VL: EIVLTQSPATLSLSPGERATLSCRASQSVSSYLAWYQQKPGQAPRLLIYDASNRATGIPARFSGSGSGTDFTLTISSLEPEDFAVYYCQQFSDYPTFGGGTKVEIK
notes: IgG
B2: SA-28 (antibody, V domains shown)
VH: QVQLQESGPGLVKPSQTLSLTCTVSGGSISSGGYYWSWIRQHPGKGLEWIGNIYYSGSTYYNPSLKSRVTISVDTSKNQFSLKLSSVTAADTAVYYCARDSDTSWGGFDYWGQGTLVTVSS
VL: EIVLTQSPGTLSLSPGERATLSCRASQSVRSSYLAWYQQKPGQAPRLLIYGASSRATGIPDRFSGSGSGTDFTLTISRLEPEDFAVYYCQQAGVSPYTFGGGTKVEIK
notes: IgG
B3: SA-29 (antibody, V domains shown)
VH: B2 VH
VL: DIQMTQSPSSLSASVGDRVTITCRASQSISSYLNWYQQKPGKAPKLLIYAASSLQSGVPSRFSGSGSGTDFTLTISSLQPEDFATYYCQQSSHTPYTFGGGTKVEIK
notes: IgG
B4: SA-26 (antibody, V domains shown)
VH: QVQLQQWGAGLLKPSETLSLTCAVYGGSFSGYYWSWIRQPPGKGLEWIGEIDHSGSTNYNPSLKSRVTISVDTSKNQFSLKLSSVTAADTAVYYCARDRLDGSLGIYGMDVWGQGTTVTVSS
VL: DIQMTQSPSSLSASVGDRVTITCRASQSINSYLNWYQQKPGKAPKLLIYAASSLQSGVPSRFSGSGSGTDFTLTISSLQPEDFATYYCQQSPSDPWTFGGGTKVEIK
notes: IgG
B5: SA-56-94 (antibody, V domains shown)
VH: EVQLVESGGGVVQPGRSLRLSCAASGFTFSYYGMSWVRQAPGKGLEWVASIWVDGSNKYYADSVKGRFTISRDNSKNTLYLQMNSLRAEDTAVYYCAVGTETYSGPNWFDPWGQGTLVTVSS
VL: B4 VL with L11V, S28G, N30S, Y32W, N34A, S91A, P92I, S93Y, D94F, W96I
notes: IgG; also called SA-94
B6: SA-56-96 (antibody, V domains shown)
VH: B5 VH with V5L, Y31S, G33A, S35G, S50V, N57L, V98T, T100R
VL: B4 VL with L11V, S28G, N30S, Y32W, N34A, S91A, P92I, S93Y, D94F, W96I
notes: IgG
B7: SA-13-68 Fab (Fab, V domains shown)
VH: EVQLLESGGGLVQPGGSLRLSCAASGFTFTEYAMSWVRQAPGKRLEWVSAISGSGGSTYYADSVKGRFTISRDNSKNTLYLQMSSLRAEDTAVYYCARDNIQWGPHFYWGQGTLVTVSS
VL: B4 VL with N30S, S91G, P92Y, S93I, D94Y, W96P
notes: papain Fab
B8: SA-14 (antibody, V domains shown)
VH: EVQLVESGGGLVKPGGSLRLSCAASGFTFSSYSMNWVRQAPGKGLEWVSSISSSSSYIYYADSVKGRFTISRDNAKNSLYLQMNSLRAEDTAVYYCARDGSMYYGDPMDVWGQGTTVTVSS
VL: DIQLTQSPSSLSASVGDRVTITCQASQDISNFLNWYQQKPGKAPKLLIYDASNLETGVPSRFSGSGSGTDFTFTISSLQPEDIAKYYCQQFINFPLTFGGGTKVEIK
notes: IgG
B9: SA-12 (antibody, V domains shown)
VH: QVQLVQSGAEVKKPGASVKVSCKASGYTFTSYYIHWVRQAPGQGLEWMGIINPSGGSTSYAQKFQGRVTMTRDTSTSTVYMELSSLRSEDTAVYYCARAPGSWFYWGQGTLVTVSS
VL: EIVLTQSPATLSLSPGERATLSCRASQSVSSYLAWYQQKPGQAPRLLIYDASNRATGIPARFSGSGSGTDFTLTISSLEPEDFAVYYCQQRTNFPITFGGGTKVEIK
notes: IgG
B10: SA-23 (antibody, V domains shown)
VH: QVQLVQSGAEVKKPGASVKVSCKASGYTFTSYGISWVRQAPGQGLEWMGWISTYNGNTNYAQKLQGRVTMTTDTSTSTAYMELRSLRSDDTAVYYCARDQGTGTTVDLDLWGRGTLVTVSS
VL: not shown
notes: IgG
B11: SA-25 (antibody, V domains shown)
VH: QVQLVQSGAEVKKPGSSVKVSCKASGGTFSSYAISWVRQAPGQGLEWMGSIIPIFGTANYAQKFQGRVTITADESTSTAYMELSSLRSEDTAVYYCARDRGYPRYSYLDLWGRGTLVTVSS
VL: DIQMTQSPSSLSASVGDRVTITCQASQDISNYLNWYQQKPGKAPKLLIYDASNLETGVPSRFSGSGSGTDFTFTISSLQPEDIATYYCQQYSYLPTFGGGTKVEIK
notes: IgG
B12: SA-31 (antibody, V domains shown)
VH: B11 VH
VL: B2 VL with R30S, A92F, G93F, V94S, S95Y, Y97P
notes: IgG
B13: SA-8-64 Fab (Fab, V domains shown)
VH: QVQLVESGGGLVKPGGSLRLSCAASGFTFSSYSMHWVRQAPGKGLEWVSSISSSDSWIYYADSVKGRFTISRDNAKNSLYLQMNSLRAEDTAVYYCAKEPRSYWHGYGMDVWGQGTTVTVSS
VL: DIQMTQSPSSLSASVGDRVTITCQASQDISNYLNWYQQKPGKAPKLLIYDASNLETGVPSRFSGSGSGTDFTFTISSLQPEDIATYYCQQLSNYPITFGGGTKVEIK
notes: papain Fab
B14: SA-8-62 Fab (Fab, V domains shown)
VH: B13 VH with N84D, P100R, R101V, S102D
VL: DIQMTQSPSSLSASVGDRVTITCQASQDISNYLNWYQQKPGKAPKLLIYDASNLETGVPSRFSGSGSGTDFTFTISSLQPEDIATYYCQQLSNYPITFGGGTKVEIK
notes: papain Fab
B15: SA-8-67 Fab (Fab, V domains shown)
VH: B13 VH with Q1E, D55P, W57H
VL: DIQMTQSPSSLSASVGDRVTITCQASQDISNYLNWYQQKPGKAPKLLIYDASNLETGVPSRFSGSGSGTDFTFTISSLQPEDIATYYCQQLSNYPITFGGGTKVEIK
notes: papain Fab
B16: SA-27 (antibody, V domains shown)
VH: QLQLQESGPGLVKPSETLSLTCTVSGGSISSSSYYWGWIRQPPGKGLEWIGSIYYSGSTYYNPSLKSRVTISVDTSKNQFSLKLSSVTAADTAVYYCARDSDKVALDLWGRGTLVTVSS
VL: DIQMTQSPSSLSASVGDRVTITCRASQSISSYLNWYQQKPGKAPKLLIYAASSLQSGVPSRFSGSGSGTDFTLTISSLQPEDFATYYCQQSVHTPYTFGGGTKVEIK
notes: IgG
B17: SA-22 (antibody, V domains shown)
VH: EVQLVESGGGLVKPGGSLRLSCAASGFTFSSYSMNWVRQAPGKGLEWVSSISSSSSYIYYADSVKGRFTISRDNAKNSLYLQMNSLRAEDTAVYYCARDPTDSSSYYDVWGQGTLVTVSS
VL: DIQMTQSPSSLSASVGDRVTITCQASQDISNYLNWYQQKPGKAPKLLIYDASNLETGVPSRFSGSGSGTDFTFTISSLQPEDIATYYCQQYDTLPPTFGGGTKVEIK
notes: IgG
B18: SA-19 (antibody, V domains shown)
VH: QVQLVESGGGVVQPGRSLRLSCAASGFTFSSYGMHWVRQAPGKGLEWVAVISYDGSNKYYADSVKGRFTISRDNSKNTLYLQMNSLRAEDTAVYYCARDLTKYTLGFAFDIWGQGTMVTVSS
VL: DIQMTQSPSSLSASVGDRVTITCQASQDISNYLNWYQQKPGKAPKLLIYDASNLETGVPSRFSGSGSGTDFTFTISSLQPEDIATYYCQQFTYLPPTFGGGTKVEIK
notes: IgG; also called SA-19 (parental)

Legend:
[1] = biological target: T1, mouse SIRPA overexpressed on CHO cells (mouse, UniProt P97797 32-513); assay: flow, CHO-muSIRPA;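 as to relative MFI: antibody binding measured by flow cytometry: cells stained with 1 ug/ml test antibody for 1 h on ice, detected with PE-labelled secondary antibody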
T1 construct: also called CHO-muSIRPA
T1 sequence: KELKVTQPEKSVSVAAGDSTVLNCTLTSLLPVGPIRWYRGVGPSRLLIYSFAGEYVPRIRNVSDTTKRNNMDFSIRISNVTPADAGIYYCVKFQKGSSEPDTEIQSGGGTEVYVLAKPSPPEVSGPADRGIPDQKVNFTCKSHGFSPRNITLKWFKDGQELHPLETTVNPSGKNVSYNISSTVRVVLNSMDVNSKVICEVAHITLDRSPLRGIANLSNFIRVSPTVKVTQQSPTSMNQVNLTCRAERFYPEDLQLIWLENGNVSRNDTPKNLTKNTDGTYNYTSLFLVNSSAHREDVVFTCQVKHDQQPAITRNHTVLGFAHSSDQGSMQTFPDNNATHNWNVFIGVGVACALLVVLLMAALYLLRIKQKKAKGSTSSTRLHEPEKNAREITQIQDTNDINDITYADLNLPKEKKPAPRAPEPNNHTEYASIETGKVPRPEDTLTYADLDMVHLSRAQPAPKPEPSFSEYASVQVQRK

Human SIRPA D1 Fc = biological target: T2, Human SIRPA D1 Fc (human, UniProt P78324 32-137); assay: ForteBio IgG avid;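 also: antibody IgG captured on AHQ biosensors, then 100 nM Fc-fused SIRP antigen applied for 3 min, followed by 3 min buffer dissociation, kinetics fitted to a 1:1 model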
T2 construct: not shown: human IgG1 Fc

Mouse SIRPA D1 Fc = biological target: T3, Mouse SIRPA D1 Fc (mouse, UniProt P97797 32-150, limits assumed); assay: ForteBio IgG avid;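 also: antibody IgG captured on AHQ biosensors, then 100 nM Fc-fused SIRP antigen applied for 3 min, followed by 3 min buffer dissociation, kinetics fitted to a 1:1 model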
T3 sequence: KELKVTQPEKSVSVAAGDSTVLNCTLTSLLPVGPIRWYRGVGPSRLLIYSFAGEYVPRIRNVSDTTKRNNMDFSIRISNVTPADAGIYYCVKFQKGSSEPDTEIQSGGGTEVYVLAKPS

Human SIRPb D1 Fc = Human SIRPb D1 Fc (human, UniProt O00241 30-148, limits assumed); assay: ForteBio IgG avid;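 also: antibody IgG captured on AHQ biosensors, then 100 nM Fc-fused SIRP antigen applied for 3 min, followed by 3 min buffer dissociation, kinetics fitted to a 1:1 model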
Human SIRPb D1 Fc, sequence (O00241 30-148 limits assumed): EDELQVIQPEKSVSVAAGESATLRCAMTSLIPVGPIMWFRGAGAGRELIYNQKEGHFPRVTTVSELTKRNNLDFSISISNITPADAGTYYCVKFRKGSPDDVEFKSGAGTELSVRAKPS

[2] = biological target: T4, human SIRPA overexpressed on CHO cells (human, UniProt P78324 31-504); assay: flow, CHO-huSIRPA;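 also: Anti-SIRPA antibodies applied at 1 µg/mL for 1 h on ice, binding read by flow cytometry using a PE-labelled secondary antibody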
T4 construct: also called CHO-huSIRPA

[3] = biological target: T1, mouse SIRPA overexpressed on CHO cells; assay: flow, CHO-muSIRPA; remark: listed apart in the source;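 as to relative MFI: antibody binding measured by flow cytometry: cells stained with 1 ug/ml test antibody for 1 h on ice, detected with PE-labelled secondary antibody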
[4] = biological target: T5, human SIRPA Fc fusion antigen (human, UniProt P78324 31-373); assay: ForteBio IgG avid;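 also: ForteBio sensor-based avid binding of anti-SIRPA antibodies in IgG format, with the binding partner in solution at 100 nM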
T5 construct: heterologous signal peptide; not shown: human IgG1 Fc

[5] = biological target: T6, human SIRPβ1 Fc fusion antigen (human, UniProt O00241 30-371); assay: ForteBio IgG avid;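 also: ForteBio sensor-based avid binding of anti-SIRPA antibodies in IgG format, with the binding partner in solution at 100 nM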
T6 construct: not shown: human IgG1 Fc
T6 sequence (O00241 30-371 limits assumed): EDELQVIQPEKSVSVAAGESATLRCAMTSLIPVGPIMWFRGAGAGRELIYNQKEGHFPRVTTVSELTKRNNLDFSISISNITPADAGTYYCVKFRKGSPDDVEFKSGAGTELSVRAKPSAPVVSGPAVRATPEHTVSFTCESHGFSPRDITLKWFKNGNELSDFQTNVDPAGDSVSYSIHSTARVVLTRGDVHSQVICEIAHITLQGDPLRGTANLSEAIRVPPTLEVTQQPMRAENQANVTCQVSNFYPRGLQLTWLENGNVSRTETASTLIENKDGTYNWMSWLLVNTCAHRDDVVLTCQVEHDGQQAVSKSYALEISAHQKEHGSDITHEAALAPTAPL

[6] = biological target: T5, human SIRPA Fc fusion antigen; assay: ForteBio Fab monovalent
Protocol: Briefly, ForteBio affinity measurements were performed by loading immunoglobulins (IgGs) on-line onto AHQ sensors. Sensors were equilibrated off-line in assay buffer for 30 min and then monitored on-line for 60 seconds for baseline establishment. For avid binding measurement, sensors with loaded IgGs were exposed to 100 nM antigen (human SIRPA or SIRPβ1 Fc fusion) for 3 min, afterwards they were transferred to assay buffer for 3 min for off-rate measurement. […] Monovalent binding measurements were obtained by loading human SIRPA Fc fusion antigens to AHQ sensor and followed by exposure to 100 nM anti-SIRPA antibody Fab.
Additional monovalent measurements were made by loading biotinylated human SIRPA monomer to SA sensor followed by exposure to 100 nM Fab in solution. Kinetics data were fit using a 1:1 binding model in the data analysis software provided by ForteBio.

Binder	binding result [1]	Kd (Human SIRPA D1 Fc) [nM]	binding result (Mouse SIRPA D1 Fc)	binding result (Human SIRPb D1 Fc)	relative MFI [2] [fold over background]	relative MFI [3] [fold over background]	Kd [4] [nM]	binding result [5]	Kd [6] [nM]	binding result (Human SIRPA D1 Fc)
B1	no binding (tested: 1 ug/ml)	4.02	no binding (tested: 100 nM)	no binding (tested: 100 nM)	0.592	0.539	–	–	–	–
B2	no binding (tested: 1 ug/ml)	6.67	no binding (tested: 100 nM)	no binding (tested: 100 nM)	0.775	0.467	–	–	–	–
B3	no binding (tested: 1 ug/ml)	4.55	no binding (tested: 100 nM)	no binding (tested: 100 nM)	0.595	0.479	–	–	–	–
B4	no binding (tested: 1 ug/ml)	13.8	no binding (tested: 100 nM)	no binding (tested: 100 nM)	1.1	0.574	–	–	–	–
B5	–	–	–	–	–	–	0.566	no binding (tested: 100 nM)	–	–
B6	–	–	–	–	–	–	1.04	no binding (tested: 100 nM)	–	–
B7	–	–	–	–	–	–	–	–	81.5	–
B8	no binding (tested: 1 ug/ml)	31	no binding (tested: 100 nM)	no binding (tested: 100 nM)	24.4	0.732	–	–	–	–
B9	no binding (tested: 1 ug/ml)	13	no binding (tested: 100 nM)	no binding (tested: 100 nM)	52	0.548	–	–	–	–
B10	–	38	–	–	21.1	0.533	–	–	–	–
B11	no binding (tested: 1 ug/ml)	24.2	no binding (tested: 100 nM)	no binding (tested: 100 nM)	8.27	0.586	–	–	–	–
B12	no binding (tested: 1 ug/ml)	6.47	no binding (tested: 100 nM)	no binding (tested: 100 nM)	12.4	0.509	–	–	–	–
B13	–	–	–	–	–	–	–	–	27.7	–
B14	–	–	–	–	–	–	–	–	8.92	–
B15	–	–	–	–	–	–	–	–	131	–
B16	no binding (tested: 1 ug/ml)	4.43	no binding (tested: 100 nM)	no binding (tested: 100 nM)	0.722	0.619	–	–	–	–
B17	no binding (tested: 1 ug/ml)	22	no binding (tested: 100 nM)	no binding (tested: 100 nM)	1.39	0.619	–	–	–	–
B18	no binding (tested: 1 ug/ml)	–	no binding (tested: 100 nM)	–	–	0.601	–	–	–	binds
